Measurements reported in patent publication US20120076815A1.

Biological target: recombinant TcPRACA proline racemase of Trypanosoma cruzi (subunit) (Trypanosoma cruzi) (UniProt Q4DA80)
Assay: cell-based or functional assay

## recombinant TcPRACA proline racemase of Trypanosoma cruzi (subunit) (from UniProt Q4DA80 30-423) (enzyme)
  % racemization (fraction B1, start of the dimer peak): 35.5%
  % racemization (fraction B2, dimer peak, about 80 kDa): 62.9%
  % racemization (fraction B4, monomer peak, about 43 kDa): 0.7%
  % racemization (fraction B5, end of the monomer peak): 0%
